A word on the IC50: it is the point on the concentration scale where inhibition reaches its midpoint. A low value points to greater potency.

The values that follow come from patent US20060073152A1 (Genentech, published 2006).

B1: SA25 (peptide)
peptide: Ac-EDICLPRWGCLWED-NH2
modifications: not fully specified (bridges); printed as Ac EDICLPRWGCLWEDNH2; cysteine pairing not given here
notes: free peptide
B2: SA20 (peptide)
peptide: Ac-QRLIEDICLPRWGCLWEDDF-NH2
modifications: not fully specified (bridges); printed as Ac QRLIEDICLPRWGCLWEDDF NH2; cysteine pairing not given here
notes: free peptide
B3: SA24 (peptide)
peptide: Ac-IEDICLPRWGCLWED-NH2
modifications: not fully specified (bridges); printed as Ac IEDICLPRWGCLWEDNH2; cysteine pairing not given here
notes: free peptide
B4: SA22 (peptide)
peptide: Ac-RLIEDICLPRWGCLWED-NH2
modifications: not fully specified (bridges); printed as Ac RLIEDICLPRWGCLWEDNH2; cysteine pairing not given here
notes: free peptide
B5: SA23 (peptide)
peptide: Ac-LIEDICLPRWGCLWED-NH2
modifications: not fully specified (bridges); printed as Ac LIEDICLPRWGCLWEDNH2; cysteine pairing not given here
notes: free peptide

Positions of bridges follow the written chain, without caps; N, C: chain ends. No end group written: not given here.

For one experiment, the target named is T1, rabbit serum albumin (rabbit, UniProt P49065 25-608).
T1 construct: also called Rabbit SA; BuSA
T1 sequence (P49065 25-608 limits assumed): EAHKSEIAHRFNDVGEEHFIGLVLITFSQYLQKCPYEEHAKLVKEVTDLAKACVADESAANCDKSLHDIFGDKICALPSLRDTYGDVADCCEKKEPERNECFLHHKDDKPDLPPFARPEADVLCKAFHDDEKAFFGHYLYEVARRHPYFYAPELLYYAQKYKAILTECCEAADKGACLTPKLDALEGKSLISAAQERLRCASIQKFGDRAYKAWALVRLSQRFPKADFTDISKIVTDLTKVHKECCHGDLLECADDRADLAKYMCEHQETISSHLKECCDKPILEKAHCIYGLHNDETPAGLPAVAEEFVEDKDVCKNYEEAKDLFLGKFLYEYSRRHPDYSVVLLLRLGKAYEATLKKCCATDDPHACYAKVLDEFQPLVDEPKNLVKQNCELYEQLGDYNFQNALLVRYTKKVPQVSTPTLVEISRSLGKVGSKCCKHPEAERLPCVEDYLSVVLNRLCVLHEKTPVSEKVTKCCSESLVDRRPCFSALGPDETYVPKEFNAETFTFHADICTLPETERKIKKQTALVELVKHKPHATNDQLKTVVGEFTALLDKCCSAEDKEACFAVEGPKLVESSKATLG
As to the kind of experiment: peptide competition; head prints RSA, read as rabbit.
B1 had an IC50 of 2730 nM. This lies in the single-digit micromolar range.
Regarding B2, the IC50 amounted to 260 nM. Against the preceding molecule, the IC50 is about 10-fold lower.
On the same count and under the same terms, with Ac-IEDICLPRWGCLWE-NH2 (disulfide 5-11 (inferred), free peptide) [SA30] the figure was 1800 nM; with B3, 1380 nM; with Ac-RLIEDICLPRWGCLW-NH2 (disulfide 7-13 (inferred), free peptide) [SA31], 200 nM.
Ac-DICLPRWGCLWED-NH2 (disulfide 3-9 (inferred), free peptide) [SA26] returned an IC50 of 3120 nM.
Turning to Ac-RLIEDICLPRWGCL-NH2 (disulfide 7-13 (inferred), free peptide) [SA33], the IC50 is 4310 nM. This IC50 and that of the molecule before are within 1.5-fold of each other.
Still for that read-out and setting: with Ac-ICLPRWGCLWED-NH2 (disulfide 2-8 (inferred), free peptide) [SA27] the figure was 86700 nM; with Ac-RLIEDICLPRWGCLWE-NH2 (disulfide 7-13 (inferred), free peptide) [SA29], 400 nM.
On the same count and under the same terms, with B4 the figure was 430 nM; with B5, 360 nM.

The target of the next experiment is T2, rat serum albumin (rat, UniProt P02770 25-608).
T2 construct: also called Rat SA; RSA
T2 sequence (P02770 25-608 limits assumed): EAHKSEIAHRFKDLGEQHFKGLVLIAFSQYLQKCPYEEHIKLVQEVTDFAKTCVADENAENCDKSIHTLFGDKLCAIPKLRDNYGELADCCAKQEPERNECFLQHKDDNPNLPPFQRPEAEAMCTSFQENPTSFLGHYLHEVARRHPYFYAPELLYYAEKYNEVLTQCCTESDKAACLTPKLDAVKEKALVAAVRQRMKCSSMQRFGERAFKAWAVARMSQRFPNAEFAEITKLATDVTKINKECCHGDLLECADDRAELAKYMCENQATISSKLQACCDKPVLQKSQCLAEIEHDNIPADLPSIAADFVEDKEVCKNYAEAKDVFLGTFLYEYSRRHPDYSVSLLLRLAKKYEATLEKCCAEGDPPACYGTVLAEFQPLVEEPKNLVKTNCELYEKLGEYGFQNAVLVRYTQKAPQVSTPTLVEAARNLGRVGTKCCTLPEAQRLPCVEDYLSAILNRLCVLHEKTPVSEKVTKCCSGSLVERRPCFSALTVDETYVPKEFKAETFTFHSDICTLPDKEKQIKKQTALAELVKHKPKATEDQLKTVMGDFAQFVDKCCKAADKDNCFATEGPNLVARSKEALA
As to the kind of experiment: phage binding.
In the case of DICLPRWGCLW (on phage) [RC-R13], the binding result is recorded as “binds”.
On the same count and under the same terms, with DICLPVWGCLW (on phage; also called RC-R2; RC-R3) [RC-R1] the entry was “binds”.
On the same count and under the same terms, with MDDICLHHWGCLWDE (on phage) [RBC-R1] the entry was “binds”; with WDDICFRDWGCLWGS (on phage) [RBC-R7], “binds”; with DTCADLVRLGLECWA (on phage) [RD-R2], “binds”.
In the case of NTCADLVRLGLECWA (on phage) [RD-R7], the binding result is “binds”.
The same measure, in the same setting: with DTCEDLVRLGLECWA (on phage) [RD-R5] the entry was “binds”.
The same measure, in the same setting: with FEDFCLPNWGCLWGS (on phage) [RBC-R4] the entry was “binds”.
Still for that read-out and setting: next, FEDLCVVRWGCLWGD (not fully specified (bridges); cysteine pairing not given here, on phage) [RBC-R6]: “binds”; EFDLCLPTWGCLWED (on phage) [RBC-R13]: “binds”.
On to MWDVCFPDWGCLWDV (not fully specified (bridges); cysteine pairing not given here, on phage) [RBC-R15], for which the binding result is given as “binds”.
Same read-out and setting: next, QGGMGDFCLPQWGCLWGEDL (on phage) [RB-R17]: “binds”; VWDLCLPQWGCLWDE (on phage) [RBC-R11]: “binds”.
The same measure, in the same setting: with MDDLCLPNWGCLWGD (not fully specified (bridges); cysteine pairing not given here, on phage) [RBC-R2] the entry was “binds”; with SEDFCLPVWGCLWED (not fully specified (bridges); cysteine pairing not given here, on phage) [RBC-R9], “binds”; with EEDVCLPVWGCLWEG (on phage) [RBC-R20], “binds”.
On to EWDVCLPHWGCLWDG (on phage) [RBC-R16], for which the binding result was “binds”.
On the same count and under the same terms, next, EWDVCFPAWGCLWDQ (on phage) [RBC-R18]: “binds”; MFDLCLPKWGCLWGN (not fully specified (bridges); cysteine pairing not given here, on phage) [RBC-R12]: “binds”.
For NWDLCFPDWGCLWDD (on phage) [RBC-R8], the binding result is recorded as “binds”.
Regarding EEDLCLPVWGCLWGA (on phage) [RBC-R14], the binding result is “binds”.
On the same count and under the same terms, next, WEDLCLPDWGCLWED (not fully specified (bridges); cysteine pairing not given here, on phage) [RBC-R5]: “binds”.
Still for that read-out and setting: next, DTCSDLVGLGLECWA (on phage) [RD-R1]: “binds”; DTCDDLVQLGLECWA (on phage) [RD-R11]: “binds”.
Same read-out and setting: next, DSCGDLLRLGLECWA (on phage) [RD-R6]: “binds”; DFDLCLPDWGCLWDD (on phage) [RBC-R10]: “binds”.
